Assay results: US20230357384A1 (NEXTCURE, published 2023)
Positions count from the first letter of the chain named. Each block holds one binder with its values, some of them ahead of it.

Assays:
[1] = biological target: T1, FLRT3-His monomeric fusion protein (Homo sapiens (Human), UniProt Q9NZU0 29-528); assay: kinetic affinity measurement with FLRT3-His monomer (Table 1)
T1 construct: also called FLRT3 monomer; not shown: His tag
T1 sequence: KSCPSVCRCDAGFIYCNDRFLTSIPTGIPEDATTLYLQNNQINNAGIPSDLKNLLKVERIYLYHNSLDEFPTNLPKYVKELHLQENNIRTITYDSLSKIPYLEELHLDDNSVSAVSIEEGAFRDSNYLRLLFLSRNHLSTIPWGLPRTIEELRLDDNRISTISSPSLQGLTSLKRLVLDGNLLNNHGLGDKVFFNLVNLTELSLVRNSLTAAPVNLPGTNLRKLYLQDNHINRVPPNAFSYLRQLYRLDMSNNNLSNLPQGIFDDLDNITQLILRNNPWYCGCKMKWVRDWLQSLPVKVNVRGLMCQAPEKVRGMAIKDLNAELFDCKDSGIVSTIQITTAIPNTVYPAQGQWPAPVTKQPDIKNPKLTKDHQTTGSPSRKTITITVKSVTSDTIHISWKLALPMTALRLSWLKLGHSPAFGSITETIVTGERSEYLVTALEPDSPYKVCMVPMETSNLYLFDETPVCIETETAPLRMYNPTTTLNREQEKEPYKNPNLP

[2] = biological target: T2, FLRT3 (antigen of the binning assay of Table 2) (Homo sapiens (Human), UniProt Q9NZU0 29-528, limits assumed); assay: antibody binning matrix (Table 2); competitor: 15G11
T2 construct: the whole entry for FLRT3 is named
T2 sequence: T1 sequence

[3] = biological target: T2, FLRT3 (antigen of the binning assay of …); assay: antibody binning matrix (Table 2); competitor: 1H5
[4] = biological target: T2, FLRT3 (antigen of the binning assay of …); assay: antibody binning matrix (Table 2); competitor: 14D3
human FLRT3 on cells [5] = biological target: T3, human FLRT3 on cells (human, UniProt Q9NZU0 29-649); assay: flow cytometry on 293T cells transfected with human FLRT3, normalised MFI, non-linear fit; Exp 1
T3 construct: also called hFLRT3
T3 sequence: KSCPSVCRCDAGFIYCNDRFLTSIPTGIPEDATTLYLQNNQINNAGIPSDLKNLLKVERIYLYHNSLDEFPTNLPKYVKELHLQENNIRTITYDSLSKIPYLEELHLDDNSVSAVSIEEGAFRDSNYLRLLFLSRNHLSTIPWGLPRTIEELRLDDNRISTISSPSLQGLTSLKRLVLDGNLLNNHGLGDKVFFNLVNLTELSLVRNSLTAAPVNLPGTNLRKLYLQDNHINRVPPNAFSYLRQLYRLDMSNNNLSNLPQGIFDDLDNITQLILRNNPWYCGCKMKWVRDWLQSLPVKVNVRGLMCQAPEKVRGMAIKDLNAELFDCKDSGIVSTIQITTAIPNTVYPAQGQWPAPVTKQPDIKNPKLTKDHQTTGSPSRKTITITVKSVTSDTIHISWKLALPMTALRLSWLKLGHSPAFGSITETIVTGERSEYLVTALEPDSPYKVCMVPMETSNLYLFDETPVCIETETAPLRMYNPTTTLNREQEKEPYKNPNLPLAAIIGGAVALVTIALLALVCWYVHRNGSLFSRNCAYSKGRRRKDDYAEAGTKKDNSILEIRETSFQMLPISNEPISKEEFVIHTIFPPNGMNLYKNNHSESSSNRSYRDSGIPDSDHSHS
Text: (§1) MFI values of each group were normalized within that group- i.e. largest value 100% and smallest value 0%.

human FLRT3 on cells [6] = biological target: T3, human FLRT3 on cells; assay: flow cytometry on 293T cells transfected with human FLRT3, normalised MFI, non-linear fit
Text: as §1

[7] = biological target: T4, mouse FLRT3 on transiently transfected 293T cells (mouse, UniProt Q8BGT1 29-649); assay: flow cytometry (AF647 MFI), transiently transfected mFLRT3-293T cells
T4 construct: also called mFLRT3
T4 sequence: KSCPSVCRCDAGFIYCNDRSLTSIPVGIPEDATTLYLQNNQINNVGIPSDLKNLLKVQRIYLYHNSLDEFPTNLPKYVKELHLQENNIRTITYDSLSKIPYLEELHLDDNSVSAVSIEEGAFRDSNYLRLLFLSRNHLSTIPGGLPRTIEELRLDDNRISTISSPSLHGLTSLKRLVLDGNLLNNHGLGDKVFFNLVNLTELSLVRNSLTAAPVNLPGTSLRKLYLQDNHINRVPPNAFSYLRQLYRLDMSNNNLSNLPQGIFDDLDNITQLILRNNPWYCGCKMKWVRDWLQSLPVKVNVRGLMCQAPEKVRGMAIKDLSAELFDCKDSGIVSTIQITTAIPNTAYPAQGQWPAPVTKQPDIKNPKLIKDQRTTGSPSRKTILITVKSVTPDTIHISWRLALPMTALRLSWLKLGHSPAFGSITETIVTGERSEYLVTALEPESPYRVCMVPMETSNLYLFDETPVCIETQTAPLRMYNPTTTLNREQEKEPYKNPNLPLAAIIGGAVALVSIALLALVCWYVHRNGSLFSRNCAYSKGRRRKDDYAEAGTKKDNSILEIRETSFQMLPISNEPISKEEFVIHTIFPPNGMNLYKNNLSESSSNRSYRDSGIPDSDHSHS

[8] = biological target: T2, FLRT3 (antigen of the binning assay of …); assay: antibody binning matrix (Table 2); competitor: 2F7
[9] = biological target: T2, FLRT3 (antigen of the binning assay of …); assay: antibody binning matrix (Table 2); row '1X Kinetic' (no first antibody), column antibody taken as binder
[10] = biological target: T2, FLRT3 (antigen of the binning assay of …); assay: antibody binning matrix (Table 2); competitor: 14B7
[11] = biological target: T2, FLRT3 (antigen of the binning assay of …); assay: antibody binning matrix (Table 2); competitor: 5C2
human FLRT3 on cells [12] = biological target: T3, human FLRT3 on cells; assay: flow cytometry on 293T cells transfected with human FLRT3, normalised MFI, non-linear fit; Exp 2
Text: as §1

human FLRT3 on cells [13] = biological target: T3, human FLRT3 on cells; assay: flow cytometry on A549 cells (endogenous hFLRT3), normalised MFI, non-linear fit
Method: Increasing concentrations of FLRT3 antibodies bound to A549 cells that express endogenous hFLRT3 (FIG. 19). Binding curves for the top three antibodies were performed (FIG. 20A). MFI values of each group were normalized within that group- i.e. largest value 100% and smallest value 0% (FIG. 20A). EC50 values were calculated based on non-linear regression fit (FIG. 20B).

human FLRT3 on cells [14] = biological target: T3, human FLRT3 on cells; assay: flow cytometry (AF647 MFI), FLRT3-293T-OKT3 cells, antibody titration
[15] = biological target: T1, FLRT3-His monomeric fusion protein; assay: Octet, FLRT3 antibodies and FLRT3 monomer

Kd [1]: 2.21 nM | koff [1]: 0.000207 s⁻¹ | kon [1]: 86200 M⁻¹ s⁻¹
B1: 20C3 (antibody, V domains shown)
VH: EVKLEESGGGLVQPGGSMKLSCVVSGFTFSNYWMNWVRQSPEKGLEWVAQIRLKSDNYATHYAESVKGRFTISRDDSKSSVYLQMNNLRAEDTGIYYCTGESNIYYGYFDYWGQGTTLTVSS
VL: QIVLTQSPAIMSASPGEKVTMTCSASSSVSYMHWYQQKSGTSPKRWIYDTSKLASGVPARFSGSGSGTSYSLTISSMEAEDAATYYCQQWSGNPYTFGGGTKLEIK
notes: Variable domains only

binning response (no name or unit printed) [2]: 0.196 | binning response (no name or unit printed) [3]: 0.644 | binning response (no name or unit printed) [4]: -0.0406 | EC50 (human FLRT3 on cells [5]): 1.82 nM | EC50 (human FLRT3 on cells [6]): < 5 nM | binding result [7]: binds | binning response (no name or unit printed) [8]: 0.75 | binning response (no name or unit printed) [9]: 0.947 | binning response (no name or unit printed) [10]: 1.36 | binning response (no name or unit printed) [11]: -0.101 | EC50 (human FLRT3 on cells [12]): 3.24 nM | EC50 (human FLRT3 on cells [13]): 8.21 nM
B2: 14D3 (antibody, V domains shown)
VH: EIQLQQSGAELVKPGASVKISCKASGYSFTGYNMNWVKQSHGKSLEWIGNITPYYGSASYNQKFKGKATLTVDKSSSTAYMQLNSLTSEDSAVYYCARRSYDYDENAMDYWGQGTSVTVSS
VL: DIVMTQSHKFMSTSVGDRVSITCKASQDLSTAVAWYQQKPGQSPKLLIYSASYRYTGVPDRFTGSGSGTDFTFTISSVQAEDLAVYYCQQHYSTPLTFGAGTKLELK
notes: Variable domains only

binning response (no name or unit printed) [2]: 0.97 | binning response (no name or unit printed) [3]: -0.0568 | binning response (no name or unit printed) [4]: 0.549 | binning response (no name or unit printed) [8]: -0.0098 | binning response (no name or unit printed) [9]: 0.947 | binning response (no name or unit printed) [10]: 1.2 | binning response (no name or unit printed) [11]: -0.26 | EC50 (read off the curve) (human FLRT3 on cells [14]): ~10 nM | Kd [1]: 0.19 nM | koff [1]: 1.6e-05 s⁻¹ | kon [1]: 140000 M⁻¹ s⁻¹
B3: 1H5 (antibody, V domains shown)
VH: EVQLQQSGPELVKPGASVKMSCKASGYTFTDYYMNWVKQSHGKSLEWIGRVNPSNGVTSYNQKFKGKAALTVDKSLSTAYMQLNSLTSEDSAVYYCARDFLMDYWGQGTSVTVSS
VL: DIVMTQSHKFMSTSVGDRVTITCKASQDVGTAVAWYQQKPGQSPKLLIYWASTRHTGVPDRFTGSGSGTDFTLTISNVQSEDLADYFCQQYSSYPTFGGGTKLEIK
notes: Variable domains only

binning response (no name or unit printed) [2]: 0.798 | binning response (no name or unit printed) [3]: -0.116 | binning response (no name or unit printed) [4]: 0.38 | binning response (no name or unit printed) [8]: -0.0655 | binning response (no name or unit printed) [9]: 0.99 | binning response (no name or unit printed) [10]: 1.06 | binning response (no name or unit printed) [11]: -0.398 | EC50 (read off the curve) (human FLRT3 on cells [14]): ~8 nM | koff [1]: 0.000135 s⁻¹ | kon [1]: 177000 M⁻¹ s⁻¹
B4: 2F7 (antibody, V domains shown)
VH: EVQLQQSGPELVKPGASVKMSCKASGYTFTDYYMNWVKQSHGKSLEWIGRVYPSNSGASYNQKFKGKATLTVDKSLSTAYMQLNSLTSEDSAVYYCASSYYFDYWGQGTTLTVSS
VL: B3 VL with V15I, T20N, Y36F, G99A, K102T, I105L
notes: Variable domains only

EC50 (human FLRT3 on cells [5]): 15.7 nM | EC50 (human FLRT3 on cells [12]): 17.7 nM | Kd [1]: 0.218 nM | koff [1]: 3.24e-05 s⁻¹ | kon [1]: 133000 M⁻¹ s⁻¹ | EC50 (human FLRT3 on cells [13]): 251 nM
B5: 12A4 (antibody, V domains shown)
VH: B3 VH with V57G, S59T, K63R, A69T, K74E
VL: B3 VL with T20S, A34T, Q42L, I48F, Q89H, S93N
notes: Variable domains only

Kd [1]: ≤ 0.001 nM | koff [1]: ≤ 1e-07 s⁻¹ | kon [1]: 60500 M⁻¹ s⁻¹
B6: 7H7 (antibody, V domains shown)
VH: EIQLQQSGAELVKPGASVKISCKASGYSFTGYNMNWVKQSHGKSLEWIGNINPYYGSTSYNQKFKGKATLTVDKSSNTAYMQLNSLTSEDSAVYYCARWGYGYDDWYFDVWGAGTTVTVSS
VL: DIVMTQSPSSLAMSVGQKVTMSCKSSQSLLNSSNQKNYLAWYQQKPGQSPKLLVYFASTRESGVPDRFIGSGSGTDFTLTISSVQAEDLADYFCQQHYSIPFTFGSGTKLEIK
notes: Variable domains only

binding result [15]: no binding | binding result (human FLRT3 on cells [14]): no binding (tested: about 300 nM)
B7: 13B2 (antibody, V domains shown)
VH: EIQLQQSGTELVKPGASVKISCKASGYSFTGYNMNWMKQSHGMSLEWIGNINPYYGSTSYNQKFKGKATLTIDKSSSTAYMQLNSLTSEDSAVYYCARDRKNWEYFFDYWGQGTTLTVSS
VL: ETTVTQSPASLSMAIGEKVTIRCITSTDIDDDMNWYQQKPGKPPKLLISEGNTLRPGVPSRFSSSGYGTDFVFTIENMLSEDVADYYCLQSDNLPYTFGGGTKLEIK
notes: Variable domains only

binding result (human FLRT3 on cells [14]): no binding (tested: about 300 nM)
B8: 10C6 (antibody, V domains shown)
VH: EIQLQQSGAEMVKPGASVKISCKASGHSFTGYNMNWVKQSHEKSLEWIGNINPYYGSTSYNQKFKGKATLTVDKSSSTAYMQLNSLTSEDSAVYYCARGGYDDYFDYWGQGTTLTVSS
VL: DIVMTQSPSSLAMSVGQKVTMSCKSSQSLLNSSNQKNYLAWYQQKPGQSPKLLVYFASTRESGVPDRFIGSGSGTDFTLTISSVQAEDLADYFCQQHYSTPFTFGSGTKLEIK
notes: Variable domains only
